Assay results as given in the RNAGym collection of RNA variant scans (doi:10.1073/pnas.2313332121).

B1: TPR t1 (parent)
chain: GACCAAUCUGCCCUCAGAGCUCGAGAACAUCUUCGGAUGCAGAGGAGGCAGGCUUCGGUGGCGCGAUAGCGCCAACGUCCUCAACCUCCAAUGCAUCCCACCACAUGAUGAUGCCUGAAGAGCCUUGGUUUUUUG

Variants of: B1
Test: polymerase ribozyme fitness, log enrichment relative to wild type (log ratio); higher = more active; in vitro selection for triplet polymerase activity
Method in brief: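 Each subunit of a heterodimeric triplet polymerase ribozyme was represented by a PCR-built, transcribed mutant library that underwent triplicate single-round in vitro selection with frozen incubation at −7 °C. Extended constructs were recovered by gel excision, streptavidin-bead capture and RT-PCR, and Illumina sequencing of input and output libraries kept genotypes with ≥10 input reads and ≥1 read per output. Fitness is the logarithm of genotype enrichment relative to wild-type enrichment, from inverse-variance-weighted replicate averages, with a logarithm base of 2.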

In order of rising “polymerase ribozyme fitness (log ratio)” value:
1. G35U C80A  -6.8
2. C40A A91G C99U A111U G122A  -6.79
3. G45A A68U C104U U109C  -6.38
4. G52A C64G C88G G120U  -6.36
5. A6C U109C G110U C114U  -6.23
6. G47U G58A G63U A90G G117C  -6.13
7. C89G C97G  -6.08
8. C22A C40U C49A C72U C123G  -5.79
9. U14A G63U G113A  -5.73
10. C8G C70A U92G  -5.61
11. G42C U109A  -5.54
12. A5C C22A C88G  -5.51
13. U78C A83U G107U  -5.42
14. C20G C73A C115G  -5.35
15. A5C G58A C89A C94G C101U  -5.27
16. C88A U109C  -5.25
17. C70G A105G  -5.16
18. C20G A41U C56G G63C A95U A119U  -5.15
19. U14A C15A A41U G44A C82A U92G C123A  -5.11
20. A50C G61C G127A  -5.03
21. C4U G10A G52U U81G C123G U125A  -4.99
22. C4U G17U G60U C89A  -4.98
23. C15A C114A  -4.98
24. U32C G71U G110A C123U U131G  -4.9
25. C4A A5U C15G C88U G120C  -4.83
26. C13G C28U C101U  -4.7
27. C12G G39A G44A C102U  -4.47
28. C22A C73G  -4.45
29. G48U G51C A95C A111G U134A  -4.35
30. G42U G44A C70A G127U  -4.25
31. C22U G44C C56U  -4.25
32. C13U C34U G52C  -4.17
33. C11A G44C G48U  -4.1
34. A66G G71A A83C C88U U106A U130G  -3.75
35. G10U G51C U106C  -3.5
36. A29U G52U C76A C123U G135U  -3.34
37. U7G U14C A29G G42U U59A C123U  -3.3
38. G45U G58A C86U A95C  -3.29
39. C115G G135U  -2.97
40. U30G C72U C80A A108C  -2.77
41. A66C U96C  -2.57
42. U14A G48A C53G C64U  -2.48
43. C12A U54C C115U  -2.47
44. C4G C13A G60A A66G C85A A121C  -2.37
45. A84G A95U C104A A121C  -2.33
46. A108G U125G  -2.24
47. C40A G48A  -2.24
48. C56G A90G G127C  -2.21
49. A37U G42A  -2.01
50. A41U G57C  -1.91
51. C11U C15U C56U C72U  -1.82
52. G19C C20U C64U  -1.8
53. C53U C73U C79A G127C  -1.71
54. A68G A83C U96G U106A A121C  -1.7
55. C53G C64U A118G C123U  -1.6
56. U7G U116G  -1.53
57. A37G C79G  -1.49
58. A16U G69U C89U  -1.47
59. C49U G58U C62G A119U C124U  -1.37
60. G61U C101A  -1.33
61. A83C G113A  -1.32
62. U21A U54C G93C  -1.26
63. C40G C72U U78C  -1.15
64. G93A A118G G135U  -1.11
65. G52U C79A  -1.05
66. G10C C85A  -0.827
67. A37U C72A U106A G135U  -0.59
68. G61U G93U  -0.532
69. C4U G10U  -0.515
70. C73G U78A  -0.494
71. A37U C62U U96G  -0.183
72. A50U G60A  -0.0812
73. U54G U87C  -0.0304
74. C49A G58A  -0.0101
75. U87C A90G U96A  0.000334
76. C12G G71A  0.0302
77. U7C C73A C101U  0.14
78. G71U U133G  0.225
79. U9C A16U G63C  0.269
80. C8G A74U U78G  0.422
81. C13G C64U A95G U112C C124U  0.563
82. G44U U112C  0.722
83. G71U G120A  0.754
